Reference: the supplement of paper PMC7877785
± gives the uncertainty stated by the source.

Test: self-splicing fitness, log relative to wild type (ln ratio); higher = more splicing; Tetrahymena group I intron in knt gene, E. coli kanamycin selection, DiMSum; sequences stand for … in CUCUCU…GGAGGGAAAAGUUAUCAGGCAUGCACCUGGUAGCUAGUCUUUAAACCAAUAGAUUGCAUCGGUUUAAAAGGCAAGACCGUCAAAUUGCGGGAAAGGGGUCAACAGCCGUUCAGUACCAAGUCUCAGGGGAAACUUUGAGAUGGCCUUGCAAAGGGUAUGGUAAUAAGCUGACGGACAUGGUCCUAACCACGCAGCCAAGUCCUAAGUCAACAGAUCUUCUGUUGAUAUGGAUGCAGUUCACAGACUAAAUGUCGGUCGGGGAAGAUGUAUUCUUCUCAUAAGAUAUAGUCGGACCUCUCCUUAAUGGGAGCUAGCGGAUGAAGUGAUGCAACACUGGAGCCGCUGGGAACUAAUUUGUAUGCGAAAGUAUAUUGAUUAGUUUUGGAGUACUCGUGGUCG
Outline: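 Fitness was computed with DiMSum as the error-weighted combination of replicate fold changes, kanamycin versus none, each normalised to wild type. The library randomised all eight intron nucleotides of the P1ex region, with the intron placed in the knt kanamycin-resistance gene on pET-22b(+) in E. coli BL21(DE3). Six replicate transformations were grown overnight at 37°C or 30°C on LB agar with or without 25 μg/mL kanamycin, plus 100 μg/mL carbenicillin, 50 μM IPTG and 0.2% rhamnose. Pooled colonies were amplicon-sequenced on an Illumina HiSeq 2500.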

| Sequence | self-splicing fitness (ln) (30 °C) | self-splicing fitness (ln) (37 °C) |
| --- | --- | --- |
| GUACAGCAAUAUUACGGUUC | -1.29 ± 0.074 | -0.703 ± 0.08 |
| AAAGAGCAAUAUUACGGAAC | – | -2.8 ± 0.44 |
| AUUGAGCAAUAUUACGUCGC | – | -1.8 ± 0.46 |
| ACAUAGCAAUAUUACGCUAU | -2.9 ± 0.13 | -2.38 ± 0.2 |
| GAUCAGCAAUAUUACGUAGU | -0.663 ± 0.1 | -0.885 ± 0.1 |
| UGGUAGCAAUAUUACGAGAC | -1.69 ± 0.24 | -2.71 ± 0.43 |
| ACAUAGCAAUAUUACGAUUU | -0.687 ± 0.062 | -0.157 ± 0.081 |
| GUACAGCAAUAUUACGCAUU | -2.76 ± 0.14 | -0.835 ± 0.087 |
| GAUGAGCAAUAUUACGCCCG | -3 ± 0.36 | -2.08 ± 0.43 |
| AAUCAGCAAUAUUACGAUGA | 0.103 ± 0.059 | 0.0645 ± 0.083 |
| GGUAAGCAAUAUUACGCCUG | – | -1.53 ± 0.33 |
| CUGAAGCAAUAUUACGCUAC | -3.7 ± 0.47 | – |
| CGACAGCAAUAUUACGCCUC | -2.24 ± 0.2 | -0.498 ± 0.2 |
| AGGUAGCAAUAUUACGUCCU | -3.01 ± 0.027 | -2.01 ± 0.041 |
| AUCGAGCAAUAUUACGUCAC | – | -1.29 ± 0.45 |
| GUUGAGCAAUAUUACGGCUU | -2.84 ± 0.28 | -1.25 ± 0.37 |
| UCCCAGCAAUAUUACGGCAC | -3.11 ± 0.12 | -1.88 ± 0.15 |
| AUGAAGCAAUAUUACGCUUU | -3.68 ± 0.2 | -2.11 ± 0.21 |
| CUGCAGCAAUAUUACGCCAU | -3.9 ± 0.2 | -3.42 ± 0.17 |
| GCAAAGCAAUAUUACGGUGG | -2.27 ± 0.12 | -2.43 ± 0.19 |
| CCCCAGCAAUAUUACGCCAC | -3.09 ± 0.13 | -0.923 ± 0.16 |
| AGAAAGCAAUAUUACGCCGA | -1.29 ± 0.15 | -0.795 ± 0.15 |
| AUUUAGCAAUAUUACGUGGU | -2.91 ± 0.18 | -2.45 ± 0.29 |
| CGAUAGCAAUAUUACGAUAC | – | -2.88 ± 0.41 |
| UCCCAGCAAUAUUACGUUAC | -3.88 ± 0.22 | -2.72 ± 0.27 |

| Sequence | self-splicing fitness (ln) (30 °C) | self-splicing fitness (ln) (37 °C) |
| --- | --- | --- |
| GGGCAGCAAUAUUACGCUGA | -1.25 ± 0.12 | -0.998 ± 0.15 |
| UCGUAGCAAUAUUACGCAAA | -3.4 ± 0.31 | -1.09 ± 0.31 |
| UAUCAGCAAUAUUACGACCA | -0.0276 ± 0.12 | 0.439 ± 0.16 |
| AAACAGCAAUAUUACGCAGC | -1.83 ± 0.14 | -1.98 ± 0.23 |
| AUGUAGCAAUAUUACGAAUA | -2.75 ± 0.26 | -1.22 ± 0.21 |
| GGCCAGCAAUAUUACGUGAU | -1.31 ± 0.075 | -0.482 ± 0.097 |
| CGGCAGCAAUAUUACGCGCU | -4.1 ± 0.25 | -1.99 ± 0.25 |
| UGCCAGCAAUAUUACGCCGG | -4.03 ± 0.21 | -3.05 ± 0.25 |
| AGAAAGCAAUAUUACGGUGA | -0.65 ± 0.12 | -0.655 ± 0.14 |
| GGAAAGCAAUAUUACGCAAU | -2.27 ± 0.45 | -0.77 ± 0.32 |
| AUACAGCAAUAUUACGUCGC | -2.42 ± 0.13 | -3.06 ± 0.26 |
| AUAGAGCAAUAUUACGUGGU | -2.91 ± 0.19 | -1.83 ± 0.2 |
| GGCGAGCAAUAUUACGUCUC | -1.87 ± 0.23 | -1.67 ± 0.38 |
| GAUGAGCAAUAUUACGGCAA | -0.812 ± 0.26 | -2.35 ± 0.37 |
| CAGGAGCAAUAUUACGUCAC | – | -1.92 ± 0.44 |
| GAGGAGCAAUAUUACGUGGA | -3.86 ± 0.32 | -2.98 ± 0.29 |
| CAAAAGCAAUAUUACGCUCA | -1.64 ± 0.11 | -0.465 ± 0.13 |
| GAUGAGCAAUAUUACGCUGU | -3.68 ± 0.26 | -2.35 ± 0.26 |
| GUGUAGCAAUAUUACGAGUU | -2.8 ± 0.15 | -1.39 ± 0.11 |
| AAUCAGCAAUAUUACGCGUU | -0.956 ± 0.057 | -0.765 ± 0.076 |
| UUUAAGCAAUAUUACGCCGG | -0.192 ± 0.089 | 0.194 ± 0.11 |
| AAAUAGCAAUAUUACGUCGA | -1.78 ± 0.078 | -0.255 ± 0.076 |
| ACCAAGCAAUAUUACGACAA | -2.14 ± 0.15 | -1.11 ± 0.12 |
| AUUAAGCAAUAUUACGCCCU | -0.0606 ± 0.33 | -0.149 ± 0.28 |
| GAGUAGCAAUAUUACGCUUU | -3.16 ± 0.32 | -1.39 ± 0.23 |

| Sequence | self-splicing fitness (ln) (30 °C) | self-splicing fitness (ln) (37 °C) |
| --- | --- | --- |
| UCUAAGCAAUAUUACGACAC | -3.7 ± 0.18 | -2.82 ± 0.17 |
| CAGUAGCAAUAUUACGUGUC | -3.74 ± 0.27 | -3.17 ± 0.33 |
| AUUGAGCAAUAUUACGUAUU | -4.59 ± 0.38 | -1.25 ± 0.16 |
| GGCAAGCAAUAUUACGAAUG | -2.14 ± 0.15 | -1.45 ± 0.16 |
| CCUCAGCAAUAUUACGAUAC | -3.21 ± 0.26 | -3.08 ± 0.47 |
| CCUAAGCAAUAUUACGUUGG | -3.45 ± 0.27 | -2.96 ± 0.24 |
| GGUUAGCAAUAUUACGUUCC | -1.45 ± 0.11 | -0.8 ± 0.12 |
| UAGUAGCAAUAUUACGGUGC | -3.13 ± 0.17 | -2.39 ± 0.19 |
| AGGGAGCAAUAUUACGGGAG | -3.56 ± 0.2 | -2.13 ± 0.23 |
| GUACAGCAAUAUUACGCUCG | -0.881 ± 0.13 | -0.344 ± 0.14 |
| CUUGAGCAAUAUUACGCCUG | – | -1.13 ± 0.36 |
| CCGAAGCAAUAUUACGGUUA | – | -2.08 ± 0.24 |
| UUGGAGCAAUAUUACGCUUC | -3.11 ± 0.34 | -0.757 ± 0.28 |
| CCACAGCAAUAUUACGUUCU | -2.77 ± 0.1 | -3.7 ± 0.19 |
| AAAAAGCAAUAUUACGCUCC | -1.14 ± 0.13 | -0.319 ± 0.17 |
| GGCAAGCAAUAUUACGACGU | -0.0263 ± 0.086 | 0.872 ± 0.12 |
| GCGAAGCAAUAUUACGUUCC | -2.43 ± 0.37 | -2.29 ± 0.44 |
| GGGGAGCAAUAUUACGGUCU | -3.73 ± 0.4 | -0.856 ± 0.31 |
| AUGAAGCAAUAUUACGGUCU | -0.0448 ± 0.069 | 0.658 ± 0.087 |
| GGCAAGCAAUAUUACGAAGU | -1.94 ± 0.093 | -1.89 ± 0.12 |
| UGGGAGCAAUAUUACGCGGU | -3.43 ± 0.24 | -3.8 ± 0.33 |
| UGGCAGCAAUAUUACGGCCA | – | -0.836 ± 0.45 |
| UCGGAGCAAUAUUACGGAGA | -3.67 ± 0.21 | -1.49 ± 0.14 |
| UGAUAGCAAUAUUACGAUGG | -1.56 ± 0.11 | -1.72 ± 0.16 |
| CAGUAGCAAUAUUACGACCG | 0.558 ± 0.16 | -0.0835 ± 0.2 |

| Sequence | self-splicing fitness (ln) (30 °C) | self-splicing fitness (ln) (37 °C) |
| --- | --- | --- |
| CCAAAGCAAUAUUACGGGUA | -2.96 ± 0.24 | -3.34 ± 0.43 |
| AAUCAGCAAUAUUACGGGGG | -1.11 ± 0.1 | -1.66 ± 0.13 |
| CAUAAGCAAUAUUACGCUUG | -3.08 ± 0.29 | -3.01 ± 0.25 |
| ACAAAGCAAUAUUACGCGCG | -1.11 ± 0.078 | -0.453 ± 0.099 |
| UAUUAGCAAUAUUACGGCGG | -0.834 ± 0.11 | -0.195 ± 0.12 |
| ACUAAGCAAUAUUACGCUGG | -2.82 ± 0.19 | -2.93 ± 0.31 |
| UUUGAGCAAUAUUACGGUGU | – | -2.7 ± 0.41 |
| GUCCAGCAAUAUUACGACAA | -1.57 ± 0.14 | -0.902 ± 0.11 |
| GUUCAGCAAUAUUACGAUGA | -1.07 ± 0.13 | -0.686 ± 0.19 |
| CCGAAGCAAUAUUACGUCUA | -3.69 ± 0.35 | -2.25 ± 0.3 |
| CUCGAGCAAUAUUACGGACG | -2.4 ± 0.15 | -2.25 ± 0.23 |
| CGUCAGCAAUAUUACGUCCG | -1.03 ± 0.11 | -0.273 ± 0.14 |
| ACCCAGCAAUAUUACGUCCA | -1.27 ± 0.12 | -0.696 ± 0.16 |
| CCGGAGCAAUAUUACGUCUA | – | -1.85 ± 0.33 |
| AUUCAGCAAUAUUACGAGUG | -1.37 ± 0.062 | -1.02 ± 0.082 |
| CAAGAGCAAUAUUACGGAUG | -2.89 ± 0.1 | -2.04 ± 0.12 |
| UUUGAGCAAUAUUACGCGAA | -2.96 ± 0.34 | -1.71 ± 0.2 |
| GUGGAGCAAUAUUACGAUCG | – | -3.31 ± 0.47 |
| UACUAGCAAUAUUACGUCUU | -2.11 ± 0.13 | -1.27 ± 0.14 |
| ACGAAGCAAUAUUACGCAGC | -2.47 ± 0.21 | -0.916 ± 0.18 |
| GAACAGCAAUAUUACGAGUA | -2.87 ± 0.12 | -1.98 ± 0.1 |
| ACUCAGCAAUAUUACGCCUC | -0.758 ± 0.095 | -1.13 ± 0.13 |
| AUGCAGCAAUAUUACGGCUA | 0.452 ± 0.11 | 0.366 ± 0.12 |
| GGCUAGCAAUAUUACGGUGG | -1.23 ± 0.096 | -0.767 ± 0.1 |
